Measured values reported in US20200262877A1, “ION CHANNEL-BINDING PEPTIDES AND METHODS OF USE THEREOF” (priority 2017, published 2020).

Assays:
TRPA1 = target: T1, TRPA1 (Homo sapiens, UniProt O75762); assay: Ion channel panel (IonWorks Barracuda): TRPA1; format: cell-based; details: 100% = no change, <100% = inhibition
T1 construct: host or cells: HEK293 or CHO
Procedure, shortened: (§1)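 Transfected HEK293 or CHO cells were exposed for at least 5 min to peptides at 200 nM and 20 μM final, tested in duplicate, in HEPES-buffered physiological saline. Activation was taken as peptide-plus-agonist current over control current ×100, and inhibition as 1 minus that ratio ×100. Each channel's control was its own reference compound.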

Cav2.1 = target: T2, Cav2.1 (Homo sapiens, UniProt O00555); assay: cell-based; details: 100% = no change, <100% = inhibition
T2 construct: host or cells: HEK293 or CHO
Procedure, shortened: as §1

Kv2.1 = target: T3, Kv2.1 (Homo sapiens, UniProt Q14721); assay: cell-based; details: 100% = no change, <100% = inhibition
T3 construct: host or cells: HEK293 or CHO
T3 sequence (Q14721 whole entry): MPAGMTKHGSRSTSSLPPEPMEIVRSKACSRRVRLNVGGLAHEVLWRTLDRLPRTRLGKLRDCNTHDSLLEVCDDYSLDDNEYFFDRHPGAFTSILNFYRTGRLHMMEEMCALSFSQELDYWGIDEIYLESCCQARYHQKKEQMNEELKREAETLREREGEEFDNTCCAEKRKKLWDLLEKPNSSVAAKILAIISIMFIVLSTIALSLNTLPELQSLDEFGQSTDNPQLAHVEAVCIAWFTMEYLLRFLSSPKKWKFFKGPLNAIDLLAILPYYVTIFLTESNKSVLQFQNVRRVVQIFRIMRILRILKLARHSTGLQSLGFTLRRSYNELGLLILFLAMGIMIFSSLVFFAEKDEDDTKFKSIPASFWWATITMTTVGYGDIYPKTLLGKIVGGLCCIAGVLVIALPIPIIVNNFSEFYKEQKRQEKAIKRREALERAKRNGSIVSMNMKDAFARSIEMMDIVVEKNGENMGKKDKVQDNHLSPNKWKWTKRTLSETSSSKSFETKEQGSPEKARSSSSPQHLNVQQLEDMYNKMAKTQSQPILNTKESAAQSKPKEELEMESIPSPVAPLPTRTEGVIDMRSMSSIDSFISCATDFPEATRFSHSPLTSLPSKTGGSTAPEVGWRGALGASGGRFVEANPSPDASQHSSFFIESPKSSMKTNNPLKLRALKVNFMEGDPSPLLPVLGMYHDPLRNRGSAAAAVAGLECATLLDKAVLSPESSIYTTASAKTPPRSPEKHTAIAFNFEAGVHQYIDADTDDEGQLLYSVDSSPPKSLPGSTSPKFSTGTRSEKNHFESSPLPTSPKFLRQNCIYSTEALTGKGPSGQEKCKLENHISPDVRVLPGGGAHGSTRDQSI
Procedure, shortened: as §1

Cav2.2 = target: T4, Cav2.2 (Homo sapiens, UniProt Q00975); assay: cell-based; details: 100% = no change, <100% = inhibition
T4 construct: host or cells: HEK293 or CHO
Procedure, shortened: as §1

Kir2.1 = target: T5, Kir2.1 (Homo sapiens, UniProt P63252); assay: Ion channel panel (IonWorks Barracuda): Kir2.1; format: cell-based; details: 100% = no change, <100% = inhibition
T5 construct: host or cells: HEK293 or CHO
Procedure, shortened: as §1

5HT3a = target: T6, 5HT3a (Homo sapiens, UniProt P46098); assay: Ion channel panel (IonWorks Barracuda): 5HT3a; format: cell-based
T6 construct: host or cells: HEK293 or CHO
T6 sequence (P46098 whole entry, looked up): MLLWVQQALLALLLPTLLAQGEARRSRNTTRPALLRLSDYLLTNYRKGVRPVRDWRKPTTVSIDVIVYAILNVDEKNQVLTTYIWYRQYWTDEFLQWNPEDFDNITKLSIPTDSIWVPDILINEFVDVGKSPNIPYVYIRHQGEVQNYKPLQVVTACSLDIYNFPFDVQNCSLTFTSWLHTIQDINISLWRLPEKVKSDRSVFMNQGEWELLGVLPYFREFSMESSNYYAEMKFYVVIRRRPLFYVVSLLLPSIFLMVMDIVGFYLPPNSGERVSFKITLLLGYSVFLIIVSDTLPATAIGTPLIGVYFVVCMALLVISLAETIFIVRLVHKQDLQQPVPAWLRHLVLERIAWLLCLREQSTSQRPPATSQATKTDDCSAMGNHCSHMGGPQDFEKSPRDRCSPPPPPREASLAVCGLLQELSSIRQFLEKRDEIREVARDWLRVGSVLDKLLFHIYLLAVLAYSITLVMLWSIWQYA
Procedure, shortened: as §1

NR2B = target: T7, NR2B (Homo sapiens, UniProt Q13224); assay: Ion channel panel (IonWorks Barracuda): NR2B; format: cell-based; details: 100% = no change, <100% = inhibition
T7 construct: host or cells: HEK293 or CHO
Procedure, shortened: as §1

Nav1.7 = target: T8, Nav1.7 (Homo sapiens, UniProt Q15858); assay: cell-based; format: cell-based; details: 100% = no change; for Activity of Nav1.7 with peptide, expressed as a percentage of the reference compound: peptide at 0.2 μM; for Activity of Nav1.7 with peptide (percentage of the reference compound): peptide at 20 μM
T8 construct: host or cells: HEK293 or CHO
T8 sequence (Q15858 whole entry): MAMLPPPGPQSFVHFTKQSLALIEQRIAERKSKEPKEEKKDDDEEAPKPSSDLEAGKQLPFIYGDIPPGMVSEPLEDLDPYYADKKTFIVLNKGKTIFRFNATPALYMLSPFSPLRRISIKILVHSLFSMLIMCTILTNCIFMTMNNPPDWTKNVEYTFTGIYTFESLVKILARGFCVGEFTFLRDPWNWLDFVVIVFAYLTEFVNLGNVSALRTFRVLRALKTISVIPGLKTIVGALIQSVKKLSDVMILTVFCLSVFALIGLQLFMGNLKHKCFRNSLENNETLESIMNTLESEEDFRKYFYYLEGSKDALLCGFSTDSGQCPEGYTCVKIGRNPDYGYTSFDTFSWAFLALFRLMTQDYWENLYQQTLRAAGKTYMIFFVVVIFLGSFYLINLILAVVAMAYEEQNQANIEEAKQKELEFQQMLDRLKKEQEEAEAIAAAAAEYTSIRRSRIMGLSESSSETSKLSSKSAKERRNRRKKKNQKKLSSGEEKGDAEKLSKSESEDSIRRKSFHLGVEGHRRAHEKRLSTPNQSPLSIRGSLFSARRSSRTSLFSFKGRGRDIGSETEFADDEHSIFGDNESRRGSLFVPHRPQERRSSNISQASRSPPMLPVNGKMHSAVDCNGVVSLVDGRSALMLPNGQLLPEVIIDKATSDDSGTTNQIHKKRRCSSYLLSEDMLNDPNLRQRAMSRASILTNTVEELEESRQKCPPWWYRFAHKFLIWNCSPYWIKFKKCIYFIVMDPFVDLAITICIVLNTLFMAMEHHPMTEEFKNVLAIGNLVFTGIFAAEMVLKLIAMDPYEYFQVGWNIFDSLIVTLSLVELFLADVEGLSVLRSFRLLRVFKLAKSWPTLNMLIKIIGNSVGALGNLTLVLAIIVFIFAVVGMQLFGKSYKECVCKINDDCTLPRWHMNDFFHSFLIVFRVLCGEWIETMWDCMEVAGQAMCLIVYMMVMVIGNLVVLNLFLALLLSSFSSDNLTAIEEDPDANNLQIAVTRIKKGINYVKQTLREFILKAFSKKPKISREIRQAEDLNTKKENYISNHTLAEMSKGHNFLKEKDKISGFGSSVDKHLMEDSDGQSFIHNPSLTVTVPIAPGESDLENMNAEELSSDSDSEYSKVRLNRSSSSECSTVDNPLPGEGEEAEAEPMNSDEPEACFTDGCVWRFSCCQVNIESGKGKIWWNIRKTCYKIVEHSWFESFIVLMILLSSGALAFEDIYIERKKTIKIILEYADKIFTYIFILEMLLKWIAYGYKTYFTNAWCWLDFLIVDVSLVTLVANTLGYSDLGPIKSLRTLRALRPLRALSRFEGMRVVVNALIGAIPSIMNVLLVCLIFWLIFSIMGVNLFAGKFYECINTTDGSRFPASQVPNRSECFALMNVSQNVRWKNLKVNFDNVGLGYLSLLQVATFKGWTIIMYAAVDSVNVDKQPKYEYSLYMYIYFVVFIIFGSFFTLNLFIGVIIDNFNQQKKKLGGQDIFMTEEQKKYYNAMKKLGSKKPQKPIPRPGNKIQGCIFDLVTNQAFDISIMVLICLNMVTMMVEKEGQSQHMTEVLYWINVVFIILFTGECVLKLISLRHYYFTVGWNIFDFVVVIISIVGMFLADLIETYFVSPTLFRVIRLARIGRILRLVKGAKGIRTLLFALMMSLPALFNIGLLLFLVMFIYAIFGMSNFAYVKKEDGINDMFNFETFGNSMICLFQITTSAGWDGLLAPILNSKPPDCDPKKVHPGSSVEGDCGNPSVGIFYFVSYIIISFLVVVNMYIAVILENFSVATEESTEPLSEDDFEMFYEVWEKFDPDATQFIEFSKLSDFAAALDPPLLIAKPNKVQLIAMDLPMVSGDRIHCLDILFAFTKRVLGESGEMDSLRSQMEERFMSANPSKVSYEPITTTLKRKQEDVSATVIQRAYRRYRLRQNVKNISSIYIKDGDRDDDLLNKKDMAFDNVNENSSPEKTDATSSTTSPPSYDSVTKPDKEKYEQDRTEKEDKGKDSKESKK

NR2A = target: T9, NR2A (Homo sapiens, UniProt Q12879); assay: Ion channel panel (IonWorks Barracuda): NR2A; format: cell-based; details: 100% = no change, <100% = inhibition
T9 construct: host or cells: HEK293 or CHO
Procedure, shortened: as §1

Kv1.1 = target: T10, Kv1.1 (Homo sapiens, UniProt Q09470); assay: cell-based; format: cell-based; details: 100% = no change, <100% = inhibition
T10 construct: host or cells: HEK293 or CHO
Procedure, shortened: as §1

Kv1.2 = target: T11, Kv1.2 (Homo sapiens, UniProt P16389); assay: cell-based; format: cell-based; details: 100% = no change, <100% = inhibition
T11 construct: host or cells: HEK293 or CHO
Procedure, shortened: as §1

Kv1.3 = target: T12, Kv1.3 (Homo sapiens, UniProt P22001); assay: cell-based; format: cell-based; details: 100% = no change, <100% = inhibition
T12 construct: host or cells: HEK293 or CHO
Procedure, shortened: as §1

Nav1.5 = Nav1.5 (Homo sapiens, UniProt Q14524); assay: in vitro; details: 100% = no change; for Activity of Nav1.5 with peptide, expressed as a percentage of the reference compound: peptide at 0.2 μM; for Activity of Nav1.5 with peptide (percentage of the reference compound): peptide at 20 μM
Nav1.5, sequence (Q14524 whole entry): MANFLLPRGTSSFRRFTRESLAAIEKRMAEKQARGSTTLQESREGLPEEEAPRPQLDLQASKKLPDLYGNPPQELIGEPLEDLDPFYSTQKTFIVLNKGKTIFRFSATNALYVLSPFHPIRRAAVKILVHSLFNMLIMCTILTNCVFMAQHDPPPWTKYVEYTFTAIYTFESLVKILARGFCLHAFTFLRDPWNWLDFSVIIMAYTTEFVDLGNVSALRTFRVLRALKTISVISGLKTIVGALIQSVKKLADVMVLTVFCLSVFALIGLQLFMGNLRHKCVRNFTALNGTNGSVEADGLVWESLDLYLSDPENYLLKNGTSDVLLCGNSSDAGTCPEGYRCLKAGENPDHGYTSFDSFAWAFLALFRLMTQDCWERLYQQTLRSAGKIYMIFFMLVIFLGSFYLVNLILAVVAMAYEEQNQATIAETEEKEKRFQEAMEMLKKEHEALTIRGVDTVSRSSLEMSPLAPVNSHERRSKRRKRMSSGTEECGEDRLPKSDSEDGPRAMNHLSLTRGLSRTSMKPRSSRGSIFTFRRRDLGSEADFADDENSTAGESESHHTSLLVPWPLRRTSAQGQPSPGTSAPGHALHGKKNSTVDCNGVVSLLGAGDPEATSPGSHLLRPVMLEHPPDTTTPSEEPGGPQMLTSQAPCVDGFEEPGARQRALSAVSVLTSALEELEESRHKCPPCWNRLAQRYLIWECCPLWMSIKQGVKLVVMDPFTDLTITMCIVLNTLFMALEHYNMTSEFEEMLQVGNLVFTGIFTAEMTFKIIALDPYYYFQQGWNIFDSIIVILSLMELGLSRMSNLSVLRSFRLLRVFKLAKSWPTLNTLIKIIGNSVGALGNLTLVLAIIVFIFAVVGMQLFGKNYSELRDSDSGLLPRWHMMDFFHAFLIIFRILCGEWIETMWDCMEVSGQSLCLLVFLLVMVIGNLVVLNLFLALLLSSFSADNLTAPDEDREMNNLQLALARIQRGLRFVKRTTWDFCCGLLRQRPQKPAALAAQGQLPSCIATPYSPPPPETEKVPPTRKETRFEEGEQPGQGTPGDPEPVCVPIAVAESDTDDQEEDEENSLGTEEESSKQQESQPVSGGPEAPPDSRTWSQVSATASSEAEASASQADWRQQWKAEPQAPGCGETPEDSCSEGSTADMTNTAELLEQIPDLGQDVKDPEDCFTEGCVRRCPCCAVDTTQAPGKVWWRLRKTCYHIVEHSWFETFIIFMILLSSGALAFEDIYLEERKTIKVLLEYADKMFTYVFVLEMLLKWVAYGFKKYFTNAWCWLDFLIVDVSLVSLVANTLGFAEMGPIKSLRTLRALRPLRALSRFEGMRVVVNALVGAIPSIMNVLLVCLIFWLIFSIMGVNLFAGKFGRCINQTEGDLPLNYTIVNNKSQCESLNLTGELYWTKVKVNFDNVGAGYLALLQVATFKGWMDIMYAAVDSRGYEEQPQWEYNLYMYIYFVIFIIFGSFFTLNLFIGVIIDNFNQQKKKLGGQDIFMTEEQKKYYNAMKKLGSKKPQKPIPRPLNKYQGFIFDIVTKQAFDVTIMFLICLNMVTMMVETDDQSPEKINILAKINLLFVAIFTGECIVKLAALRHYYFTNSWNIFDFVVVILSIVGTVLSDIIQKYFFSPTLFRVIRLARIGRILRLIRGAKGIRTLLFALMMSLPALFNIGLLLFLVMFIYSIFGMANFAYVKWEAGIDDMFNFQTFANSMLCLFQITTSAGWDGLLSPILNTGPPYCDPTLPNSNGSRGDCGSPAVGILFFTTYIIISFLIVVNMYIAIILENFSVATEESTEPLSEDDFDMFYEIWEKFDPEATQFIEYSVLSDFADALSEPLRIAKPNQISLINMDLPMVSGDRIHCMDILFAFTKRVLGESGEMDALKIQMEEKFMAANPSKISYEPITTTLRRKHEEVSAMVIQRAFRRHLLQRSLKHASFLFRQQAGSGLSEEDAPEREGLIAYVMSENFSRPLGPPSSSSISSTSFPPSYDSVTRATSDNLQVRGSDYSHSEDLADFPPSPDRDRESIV
Procedure, shortened: as §1

hERG = hERG (Homo sapiens, UniProt Q12809); assay: in vitro; details: 100% = no change, <100% = inhibition
Procedure, shortened: as §1

α3β4 = target: T13, α3β4 (Homo sapiens, UniProt P30926+P32297); assay: Ion channel panel (IonWorks Barracuda): α3β4; format: cell-based; details: 100% = no change, <100% = inhibition
T13 construct: host or cells: HEK293 or CHO
Procedure, shortened: as §1

TRPV1 = target: T14, TRPV1 (Homo sapiens, UniProt Q8NER1); assay: Ion channel panel (IonWorks Barracuda): TRPV1; format: cell-based; details: 100% = no change, <100% = inhibition
T14 construct: host or cells: HEK293 or CHO
Procedure, shortened: as §1

α4β2 = target: T15, α4β2 (Homo sapiens, UniProt P17787+P43681); assay: Ion channel panel (IonWorks Barracuda): α4β2; format: cell-based; details: 100% = no change, <100% = inhibition
T15 construct: host or cells: HEK293 or CHO
Procedure, shortened: as §1

GABA = assay: Ion channel panel (IonWorks Barracuda): GABA; format: cell-based; details: 100% = no change, <100% = inhibition
Procedure, shortened: as §1

[1] = first of two Nav1.7 columns (probably TP1)
[2] = second of two Nav1.7 columns (probably TP2)
[3] = first of two Nav1.5 columns (probably TP1)
[4] = second of two Nav1.5 columns (probably TP2)

Substance: 17 (GSRPTDIKCSASYQCFPVCKSRFGKTNGRCVNGLCDCF) [compound 17]
- Activity of TRPA1 with peptide, expressed as a percentage of the reference compound (TRPA1; peptide at 0.2 μM): 176%
- Activity of TRPA1 with peptide (percentage of the reference compound) (TRPA1; peptide at 20 μM): 129%
- Activity of Cav2.1 with peptide, expressed as a percentage of the reference compound (Cav2.1; peptide at 0.2 μM): 107%
- Activity of Cav2.1 with peptide (percentage of the reference compound) (Cav2.1; peptide at 20 μM): 90%
- Activity of Kv2.1 with peptide, expressed as a percentage of the reference compound (Kv2.1; peptide at 0.2 μM): 88%
- Activity of Kv2.1 with peptide (percentage of the reference compound) (Kv2.1; peptide at 20 μM): 93%
- Activity of Cav2.2 with peptide, expressed as a percentage of the reference compound (Cav2.2; peptide at 0.2 μM): 117%
- Activity of Cav2.2 with peptide (percentage of the reference compound) (Cav2.2; peptide at 20 μM): 100%
- Activity of Kir2.1 with peptide, expressed as a percentage of the reference compound (Kir2.1; peptide at 0.2 μM): 103%
- Activity of Kir2.1 with peptide (percentage of the reference compound) (Kir2.1; peptide at 20 μM): 84%
- Activity of 5HT3a with peptide (percentage of the reference compound) (5HT3a): 85%
- Activity of 5HT3a with peptide, expressed as a percentage of the reference compound (5HT3a): 81%
- Activity of NR2B with peptide, expressed as a percentage of the reference compound (NR2B; peptide at 0.2 μM): 90%
- Activity of NR2B with peptide (percentage of the reference compound) (NR2B; peptide at 20 μM): 77%
- Activity of Nav1.7 with peptide, expressed as a percentage of the reference compound (Nav1.7; [1]): 66%
- Activity of Nav1.7 with peptide, expressed as a percentage of the reference compound (Nav1.7; [2]): 61%
- Activity of Nav1.7 with peptide (percentage of the reference compound) (Nav1.7; [1]): 75%
- Activity of Nav1.7 with peptide (percentage of the reference compound) (Nav1.7; [2]): 60%
- Activity of NR2A with peptide, expressed as a percentage of the reference compound (NR2A; peptide at 0.2 μM): 83%
- Activity of NR2A with peptide (percentage of the reference compound) (NR2A; peptide at 20 μM): 96%
- Activity of Kv1.1 with peptide, expressed as a percentage of the reference compound (Kv1.1; peptide at 0.2 μM): 106%
- Activity of Kv1.1 with peptide (percentage of the reference compound) (Kv1.1; peptide at 20 μM): 89%
- Activity of Kv1.2 with peptide, expressed as a percentage of the reference compound (Kv1.2; peptide at 0.2 μM): 97%
- Activity of Kv1.2 with peptide (percentage of the reference compound) (Kv1.2; peptide at 20 μM): 47%
- Activity of Kv1.3 with peptide, expressed as a percentage of the reference compound (Kv1.3; peptide at 0.2 μM): 96%
- Activity of Kv1.3 with peptide (percentage of the reference compound) (Kv1.3; peptide at 20 μM): 6%
- Activity of Nav1.5 with peptide, expressed as a percentage of the reference compound (Nav1.5; [3]): 96%
- Activity of Nav1.5 with peptide, expressed as a percentage of the reference compound (Nav1.5; [4]): 95%
- Activity of Nav1.5 with peptide (percentage of the reference compound) (Nav1.5; [3]): 95%
- Activity of Nav1.5 with peptide (percentage of the reference compound) (Nav1.5; [4]): 94%
- Activity of hERG with peptide, expressed as a percentage of the reference compound (hERG; peptide at 0.2 μM): 85%
- Activity of hERG with peptide (percentage of the reference compound) (hERG; peptide at 20 μM): 8%
- Activity of a3b4 with peptide, expressed as a percentage of the reference compound (α3β4; peptide at 0.2 μM): 98%
- Activity of a3b4 with peptide (percentage of the reference compound) (α3β4; peptide at 20 μM): 97%
- Activity of TRPV1 with peptide, expressed as a percentage of the reference compound (TRPV1; peptide at 0.2 μM): 99%
- Activity of TRPV1 with peptide (percentage of the reference compound) (TRPV1; peptide at 20 μM): 82%
- Activity of a4b2 with peptide, expressed as a percentage of the reference compound (α4β2; peptide at 0.2 μM): 93%
- Activity of a4b2 with peptide (percentage of the reference compound) (α4β2; peptide at 20 μM): 78%
- Activity of GABA with peptide, expressed as a percentage of the reference compound (GABA; peptide at 0.2 μM): 97%
- Activity of GABA with peptide (percentage of the reference compound) (GABA; peptide at 20 μM): 108%
